The series concerns Escherichia coli TOP10. The series is described as follows: shrunken log2 fold change of peptide-encoding DNA abundance (4.5 h post-induction vs induction); higher = less antimicrobial activity (less host growth inhibition). The settings on record: time post-induction: 4.5 h; library: site-saturation at positions 5, 18, 19, 20.
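Further: peptides expressed intracellularly from a pBAD plasmid library in pooled LB shake-flask culture, induced with 0.3% L-arabinose, DNA abundance read by NGS, three biological replicates, DESeq2 with apeglm shrinkage.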

Take RRIRVRPPRLPRPRPRPVNDPRP: the “shrunken log2 fold change” value is -0.201.

For RRIRRRPPRLPRPRPRPVQAPRP, the “shrunken log2 fold change” value is 0.464.

In the case of RRIRPRPPRLPRPRPRPMTYPRP, the “shrunken log2 fold change” value was -0.437.

In the case of RRIRTRPPRLPRPRPRPHDSPRP, the “shrunken log2 fold change” value was -0.229.

As to RRIRGRPPRLPRPRPRPVSAPRP, the “shrunken log2 fold change” value stood at 0.676.

On to RRIRNRPPRLPRPRPRPGANPRP, for which the “shrunken log2 fold change” value was -0.151.

On to RRIRPRPPRLPRPRPRPMFIPRP, for which the “shrunken log2 fold change” value was -0.439.

With RRIRDRPPRLPRPRPRPSGDPRP, the “shrunken log2 fold change” value is 0.163.

In the case of RRIRIRPPRLPRPRPRPGYQPRP, the “shrunken log2 fold change” value is -0.0481.

RRIRCRPPRLPRPRPRPKYMPRP: the “shrunken log2 fold change” value is -0.498.

In the case of RRIRMRPPRLPRPRPRPRLAPRP, the “shrunken log2 fold change” value was 2.7.

In the case of RRIRIRPPRLPRPRPRPWLHPRP, the “shrunken log2 fold change” value is -0.496.

With RRIRRRPPRLPRPRPRPVVGPRP, the “shrunken log2 fold change” value was found to be 0.487.

Regarding RRIRGRPPRLPRPRPRPFARPRP, the “shrunken log2 fold change” value came out at 0.484.

With RRIRNRPPRLPRPRPRPCKPPRP, the “shrunken log2 fold change” value is -0.0414.

Consider RRIRTRPPRLPRPRPRPWGWPRP, for which the “shrunken log2 fold change” value was -0.0131.

Take RRIRKRPPRLPRPRPRPMYKPRP: the “shrunken log2 fold change” value was -0.0655.

In the case of RRIRKRPPRLPRPRPRPKRPPRP, the “shrunken log2 fold change” value is 0.552.

Regarding RRIRMRPPRLPRPRPRPEGPPRP, the “shrunken log2 fold change” value turned out to be 0.578.

For the sequence RRIRIRPPRLPRPRPRPHWTPRP, the “shrunken log2 fold change” value was 0.0591.

Consider RRIRNRPPRLPRPRPRPQSDPRP, for which the “shrunken log2 fold change” value is -0.174.

As for RRIRKRPPRLPRPRPRPHASPRP, the “shrunken log2 fold change” value is 0.073.

As for RRIRCRPPRLPRPRPRPMHIPRP, the “shrunken log2 fold change” value is -0.241.

On to RRIRDRPPRLPRPRPRPSDEPRP, for which the “shrunken log2 fold change” value was found to be 0.406.

Regarding RRIRERPPRLPRPRPRPTGSPRP, the “shrunken log2 fold change” value is -0.211.

On to RRIRERPPRLPRPRPRPNQRPRP, for which the “shrunken log2 fold change” value was -0.0506.

On to RRIRNRPPRLPRPRPRPTPSPRP, for which the “shrunken log2 fold change” value worked out at 0.338.

In the case of RRIRVRPPRLPRPRPRPIANPRP, the “shrunken log2 fold change” value worked out at 0.0572.

RRIRYRPPRLPRPRPRPWEPPRP: the “shrunken log2 fold change” value is -0.0182.

RRIRMRPPRLPRPRPRPEWGPRP: the “shrunken log2 fold change” value stood at 0.437.

Turning to RRIRPRPPRLPRPRPRPGVTPRP, the “shrunken log2 fold change” value was -0.227.

Turning to RRIRRRPPRLPRPRPRPTPDPRP, the “shrunken log2 fold change” value was 0.72.

RRIRHRPPRLPRPRPRPLGTPRP: the “shrunken log2 fold change” value is -0.129.

Take RRIRDRPPRLPRPRPRPCDEPRP: the “shrunken log2 fold change” value was -0.00174.

Turning to RRIRQRPPRLPRPRPRPNCQPRP, the “shrunken log2 fold change” value is -0.055.

Turning to RRIRTRPPRLPRPRPRPIPLPRP, the “shrunken log2 fold change” value was -0.683.

RRIRIRPPRLPRPRPRPFLNPRP: the “shrunken log2 fold change” value is -0.429.

As to RRIRLRPPRLPRPRPRPGHKPRP, the “shrunken log2 fold change” value is -0.275.

As to RRIRFRPPRLPRPRPRPRSEPRP, the “shrunken log2 fold change” value worked out at 0.11.

In the case of RRIRARPPRLPRPRPRPHMGPRP, the “shrunken log2 fold change” value came to 0.0766.

On to RRIRYRPPRLPRPRPRPCNQPRP, for which the “shrunken log2 fold change” value was -0.224.

Take RRIRKRPPRLPRPRPRPCGWPRP: the “shrunken log2 fold change” value amounted to 0.179.

Consider RRIRQRPPRLPRPRPRPMERPRP, for which the “shrunken log2 fold change” value was determined as 0.301.

On to RRIRLRPPRLPRPRPRPVCNPRP, for which the “shrunken log2 fold change” value was -0.0299.

As for RRIRHRPPRLPRPRPRPFPFPRP, the “shrunken log2 fold change” value is -0.758.

Turning to RRIRFRPPRLPRPRPRPIDVPRP, the “shrunken log2 fold change” value was -0.146.

As to RRIRIRPPRLPRPRPRPRCRPRP, the “shrunken log2 fold change” value was -0.164.

Regarding RRIRNRPPRLPRPRPRPHKTPRP, the “shrunken log2 fold change” value is -0.22.

As for RRIRVRPPRLPRPRPRPQDRPRP, the “shrunken log2 fold change” value is 0.0443.

As for RRIRCRPPRLPRPRPRPYITPRP, the “shrunken log2 fold change” value was -1.44.

Take RRIRMRPPRLPRPRPRPVSIPRP: the “shrunken log2 fold change” value worked out at 0.0541.

As to RRIRFRPPRLPRPRPRPTYDPRP, the “shrunken log2 fold change” value was -0.604.

As for RRIRWRPPRLPRPRPRPVFHPRP, the “shrunken log2 fold change” value was 0.379.

As to RRIRPRPPRLPRPRPRPAHWPRP, the “shrunken log2 fold change” value was determined as 0.484.

Regarding RRIRGRPPRLPRPRPRPMRTPRP, the “shrunken log2 fold change” value turned out to be 2.

As to RRIRMRPPRLPRPRPRPEFHPRP, the “shrunken log2 fold change” value is 0.0755.

RRIRMRPPRLPRPRPRPRNDPRP: the “shrunken log2 fold change” value was found to be 0.193.

For the sequence RRIRYRPPRLPRPRPRPHAGPRP, the “shrunken log2 fold change” value amounted to 0.0561.

Turning to RRIRSRPPRLPRPRPRPVFKPRP, the “shrunken log2 fold change” value is -0.29.

Consider RRIRPRPPRLPRPRPRPYAAPRP, for which the “shrunken log2 fold change” value was determined as 0.0621.

As for RRIRRRPPRLPRPRPRPLEVPRP, the “shrunken log2 fold change” value was determined as 0.197.

Turning to RRIRVRPPRLPRPRPRPSRFPRP, the “shrunken log2 fold change” value is -0.0691.

For RRIRWRPPRLPRPRPRPCFLPRP, the “shrunken log2 fold change” value is -0.462.

With RRIRDRPPRLPRPRPRPYCWPRP, the “shrunken log2 fold change” value turned out to be 0.085.

Consider RRIRMRPPRLPRPRPRPSHHPRP, for which the “shrunken log2 fold change” value is -0.171.

Take RRIRKRPPRLPRPRPRPFAWPRP: the “shrunken log2 fold change” value came out at 0.462.

For RRIRFRPPRLPRPRPRPNYYPRP, the “shrunken log2 fold change” value is -0.613.

Turning to RRIRYRPPRLPRPRPRPHNMPRP, the “shrunken log2 fold change” value is -0.17.

In the case of RRIRFRPPRLPRPRPRPIHNPRP, the “shrunken log2 fold change” value was -0.745.

Turning to RRIRQRPPRLPRPRPRPELFPRP, the “shrunken log2 fold change” value was -0.0927.

In the case of RRIRKRPPRLPRPRPRPARNPRP, the “shrunken log2 fold change” value stood at 0.00491.

Turning to RRIRRRPPRLPRPRPRPMFTPRP, the “shrunken log2 fold change” value came out at 0.0616.

As for RRIRYRPPRLPRPRPRPWPPPRP, the “shrunken log2 fold change” value stood at 0.194.

With RRIRKRPPRLPRPRPRPNWVPRP, the “shrunken log2 fold change” value was -0.087.

For the sequence RRIRLRPPRLPRPRPRPQTPPRP, the “shrunken log2 fold change” value is 0.358.

Take RRIRGRPPRLPRPRPRPSQTPRP: the “shrunken log2 fold change” value stood at 1.08.

With RRIRKRPPRLPRPRPRPNNDPRP, the “shrunken log2 fold change” value is 0.0263.

On to RRIRMRPPRLPRPRPRPSPGPRP, for which the “shrunken log2 fold change” value is 0.564.

Take RRIRQRPPRLPRPRPRPQAPPRP: the “shrunken log2 fold change” value came to 0.233.

For RRIRIRPPRLPRPRPRPKTHPRP, the “shrunken log2 fold change” value is -0.203.

For the sequence RRIRWRPPRLPRPRPRPHEIPRP, the “shrunken log2 fold change” value was 0.0984.

In the case of RRIRWRPPRLPRPRPRPVASPRP, the “shrunken log2 fold change” value turned out to be 0.27.

Turning to RRIRMRPPRLPRPRPRPLTQPRP, the “shrunken log2 fold change” value turned out to be 0.175.

Regarding RRIRSRPPRLPRPRPRPRGRPRP, the “shrunken log2 fold change” value is 0.375.

Turning to RRIRPRPPRLPRPRPRPSPTPRP, the “shrunken log2 fold change” value was found to be 0.22.

On to RRIRSRPPRLPRPRPRPLGEPRP, for which the “shrunken log2 fold change” value is 0.175.

As for RRIRMRPPRLPRPRPRPAQVPRP, the “shrunken log2 fold change” value is -0.0213.

For RRIRERPPRLPRPRPRPMKQPRP, the “shrunken log2 fold change” value is -0.0573.

On to RRIRFRPPRLPRPRPRPRNFPRP, for which the “shrunken log2 fold change” value is -0.0477.

As to RRIRRRPPRLPRPRPRPHYTPRP, the “shrunken log2 fold change” value was -0.313.

Take RRIRHRPPRLPRPRPRPAMQPRP: the “shrunken log2 fold change” value was found to be 0.325.

Consider RRIRYRPPRLPRPRPRPMWAPRP, for which the “shrunken log2 fold change” value is -0.0298.

Consider RRIRIRPPRLPRPRPRPPEAPRP, for which the “shrunken log2 fold change” value stood at 0.276.

Turning to RRIRHRPPRLPRPRPRPCYLPRP, the “shrunken log2 fold change” value is -0.897.

For RRIRGRPPRLPRPRPRPGLSPRP, the “shrunken log2 fold change” value was 1.12.

As to RRIRFRPPRLPRPRPRPCWPPRP, the “shrunken log2 fold change” value was 0.0203.

Take RRIRCRPPRLPRPRPRPQILPRP: the “shrunken log2 fold change” value was -0.354.

Take RRIRSRPPRLPRPRPRPCVRPRP: the “shrunken log2 fold change” value was -0.103.

Regarding RRIRMRPPRLPRPRPRPGEHPRP, the “shrunken log2 fold change” value turned out to be 0.987.

Take RRIRARPPRLPRPRPRPLRSPRP: the “shrunken log2 fold change” value was determined as 0.914.

Regarding RRIRTRPPRLPRPRPRPSVIPRP, the “shrunken log2 fold change” value was -0.268.

In the case of RRIRPRPPRLPRPRPRPFRWPRP, the “shrunken log2 fold change” value is -0.0528.

RRIRARPPRLPRPRPRPWPFPRP: the “shrunken log2 fold change” value was -0.0236.

RRIRGRPPRLPRPRPRPLVSPRP: the “shrunken log2 fold change” value was 0.355.

As for RRIRRRPPRLPRPRPRPVWAPRP, the “shrunken log2 fold change” value was found to be 0.339.

Consider RRIRYRPPRLPRPRPRPWWAPRP, for which the “shrunken log2 fold change” value is -0.19.

RRIRMRPPRLPRPRPRPAFVPRP: the “shrunken log2 fold change” value is 0.233.

Turning to RRIRLRPPRLPRPRPRPCIWPRP, the “shrunken log2 fold change” value is -0.21.

RRIRFRPPRLPRPRPRPMNSPRP: the “shrunken log2 fold change” value was -0.325.

Consider RRIRYRPPRLPRPRPRPYLKPRP, for which the “shrunken log2 fold change” value is -0.478.

Turning to RRIRCRPPRLPRPRPRPYPPPRP, the “shrunken log2 fold change” value is -0.631.

Consider RRIRPRPPRLPRPRPRPIWAPRP, for which the “shrunken log2 fold change” value is 0.384.

Regarding RRIRFRPPRLPRPRPRPYIYPRP, the “shrunken log2 fold change” value is -0.0532.

As for RRIRFRPPRLPRPRPRPMQQPRP, the “shrunken log2 fold change” value is -0.0268.

In the case of RRIRWRPPRLPRPRPRPWHMPRP, the “shrunken log2 fold change” value was determined as 0.219.

Regarding RRIRTRPPRLPRPRPRPGFRPRP, the “shrunken log2 fold change” value was -0.0537.

With RRIRWRPPRLPRPRPRPMPDPRP, the “shrunken log2 fold change” value was 0.173.

Turning to RRIRFRPPRLPRPRPRPLNWPRP, the “shrunken log2 fold change” value is -0.109.

In the case of RRIRQRPPRLPRPRPRPMLQPRP, the “shrunken log2 fold change” value turned out to be 0.00663.

Take RRIRARPPRLPRPRPRPGAVPRP: the “shrunken log2 fold change” value was determined as 0.578.

In the case of RRIRVRPPRLPRPRPRPGYTPRP, the “shrunken log2 fold change” value was -0.208.

Turning to RRIRSRPPRLPRPRPRPVGHPRP, the “shrunken log2 fold change” value is -0.376.

Consider RRIRMRPPRLPRPRPRPIEFPRP, for which the “shrunken log2 fold change” value amounted to 0.103.

Consider RRIRKRPPRLPRPRPRPQENPRP, for which the “shrunken log2 fold change” value stood at 0.256.

RRIRLRPPRLPRPRPRPNFCPRP: the “shrunken log2 fold change” value was 0.101.
